We go through three molecules from US20190000964A1 (CREATIVE BIO PEPTIDES, published 2019).

The target in assay [1] is T1, human CCR5 receptor (hCCR5) (human, UniProt P51681 1-352).
T1 construct: whole, on cells; also called synCCR5; chemokine co-receptor CCR5
Put plainly: inhibition of gp120/sCD4 complex binding to CCR5-expressing Cf2Th cells by competing peptide.

Assay [2] deals with T1, human CCR5 receptor (hCCR5). Put plainly: inhibition of gp120BaL/sCD4 binding to Cf2Th/synR5 cells (FIG. 4A).
Assay [3] has the same target. As to the kind of experiment: inhibition of gp120CM235/sCD4 binding to Cf2Th/synR5 cells (FIG. 4B).
The target is the same in assay [4]. Put plainly: inhibition of gp120CM235/sCD4 binding to GHOST CD4.CCR5 cells (FIG. 4C).

T1 sequence (P51681 whole entry): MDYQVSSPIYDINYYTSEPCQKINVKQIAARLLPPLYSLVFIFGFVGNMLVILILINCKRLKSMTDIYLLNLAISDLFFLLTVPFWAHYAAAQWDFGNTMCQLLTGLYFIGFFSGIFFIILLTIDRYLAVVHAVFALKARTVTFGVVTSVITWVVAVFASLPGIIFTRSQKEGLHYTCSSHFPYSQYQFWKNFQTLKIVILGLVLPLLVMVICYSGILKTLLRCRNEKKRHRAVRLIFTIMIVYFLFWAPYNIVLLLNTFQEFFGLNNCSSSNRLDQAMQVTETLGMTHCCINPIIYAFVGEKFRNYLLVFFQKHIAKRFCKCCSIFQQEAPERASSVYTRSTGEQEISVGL

B1: INNYT (peptide)
peptide: INNYT
In assay [1], B1 returned an EC50 of 0.06 nM.

B2: IDNYT (peptide)
peptide: IDNYT
B2 showed an EC50 in assay [1] of 1 nM.

B3: MIP-1β (ligand)
chain: APMGSDPPTACCFSYTARKLPRNFVVDYYETSSLCSQPAVVFQTKRSKQVCADPSESWVQEYVYDLELN
notes: also called MIP-β
Turning to B3, the IC50 in assay [2] came out at 1.5 nM; in assay [3], 1.8 nM; in assay [4], 0.43 nM.

By EC50 is commonly meant the midpoint of the concentration-response curve. Read a low EC50 as greater potency. For orientation: IC50 means the point on the concentration scale where inhibition reaches its midpoint.
